Measured values from paper doi:10.1101/2023.08.09.551721 (bioRxiv, 2023).

Molecular target: histone H4 (in the nucleosome) (Xenopus laevis, UniProt P62799)
Assay: cryo-EM structure

- binding result: binds
B1: DDM1-HELLS chimeric protein (DDM1^HELLS) (enzyme)
chain: MVSLRSRKVIPASEMVSDGKTEKDASGDSPTSVLNEEENCEEKSVTVVEEEILLAKNGDSSLISEAMAQEEEQLLKLREDEEKANNAGSAVAPNLNETQFTKLDELLTQTQLYSEFLLEKMEDITINGIESESQKAEPEKTGRGRKRKAASQYNNTKAKRAVAAMISRSKEDGETINSDLTEEETVIKLQNELCPLLTGGQLKSYQLKGVKWLISLWQNGLNGILADQMGLGKTIQTIGFLSHLKGNGLDGPYLVIAPLSTLSNWFNEIARFTPSINAIIYHGDKNQRDELRRKHMPKTVGPKFPIVITSYEVAMNDAKRILRHYPWKYVVIDEGHRLKNHKCKLLRELKHLKMDNKLLLTGTPLQNNLSELWSLLNFILPDIFTSHDEFESWFDFSEKNKNEATKEEEEKRRAQVVSKLHGILRPFILRRMKCDVELSLPRKKEIIMYATMTDHQKKFQEHLVNNTLEAHLGENAIRGIELSPTGRPKRRTRKSINYSKIDDFPNELEKLISQIQPEVDRERAVVEVNIPVEQGWKGKLNNLVIQLRKNCNHPDLLQGQIDGSYLYPPVEEIVGQCGKFRLLERLLVRLFANNHKVLIFSQWTKLLDIMDYYFSEKGFEVCRIDGSVKLDERRRQIKDFSDEKSSCSIFLLSTRAGGLGINLTAADTCILYDSDWNPQMDLQAMDRCHRIGQTKPVHVYRLSTAQSIETRVLKRAYSKLKLEHVVIGQGQFHQERAKSSTPLEEEDILALLKEDETAEDKLIQTDISDADLDRLLDRSDLTITAPGETQAAEAFPVKGPGWEVVLPSSGGMLSSLNS
